Assay [1] has as its target T1, SARS-CoV-1的RBD重组蛋白 SARS-CoV1-RBD (SARS-CoV-1, UniProt P59594 306-527). Briefly: indirect ELISA, RBD coated at 2 μg/mL, antibody at 10, 1, 0.1 and 0.01 μg/mL. For orientation: ELISA stands for enzyme-linked immunosorbent assay.
Assay [2] deals with T1, SARS-CoV-1的RBD重组蛋白 SARS-CoV1-RBD.

B1: 小鼠单克隆抗体36H6 (antibody, V domains shown)
VH: EVQLQQSGPELVNPGASVKISCKTSGYTFTEYTMHWVKQSHGKSLEWIGGINPNNGDTIYNQKFKGKATLTVDKSSSTAYMELRSLTSEDSAVFYCAREGDYYVSSYGYWGQGTTLTVSS
VL: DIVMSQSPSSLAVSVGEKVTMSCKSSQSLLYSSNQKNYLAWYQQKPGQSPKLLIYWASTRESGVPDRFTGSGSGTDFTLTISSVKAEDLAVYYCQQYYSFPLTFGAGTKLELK
Turning to B1, the binding result in assay [1] was “no binding (tested: 10μg/mL)”.

B2: 小鼠单克隆抗体2B4 (antibody, V domains shown)
VH: QVQLQQPGAELVRPGASVKLSCKASGYTFTSYWMNWVKQRPEQGLEWIGRIDPYDSETHYNQKFKDKAILTVDKSSTTAYMQLSSLTSEDSAVYYCARWGTVEWFFDYWGQGTTLTVSQ
VL: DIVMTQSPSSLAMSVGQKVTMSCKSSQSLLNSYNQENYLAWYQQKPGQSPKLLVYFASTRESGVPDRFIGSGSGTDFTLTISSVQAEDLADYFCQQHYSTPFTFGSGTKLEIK
As a reminder, the Kd is a measure of binding affinity in units of concentration. A high value points to lower affinity. In turn, B2 had a dissociation constant (Kd) in assay [2] of 34.1 nM.

Values taken from patent CN113583116A (YANG SHENG TANG CO LTD; UNIV XIAMEN, dated 2021).
